For one substance, IC50, neutralizing activity (MTT assay) and IC50 in TZM-bl cells results are on record in patent US20110044995A1.

Experiment in all cases: cell-based or functional assay
The target in assay [1] is envelope of HIV-1 strain SF162 (HIV-1 strain SF162) (UniProt P19550).
Assay [2] deals with envelope of standard panel pseudotyped virus SVPB8 (HIV-1 subtype B).
For assay [3], the target named is envelope of HIV-1 strain IIIB (HIV-1 strain IIIB).
Assay [4] deals with envelope of standard panel pseudotyped virus SVPB11 (HIV-1 subtype B).
The target of assay [5] is envelope of standard panel pseudotyped virus SVPB5 (HIV-1 subtype B).
For assay [6], the target named is envelope of HIV-2 strain ROD (HIV-2 strain ROD) (UniProt P04577).
Chain of envelope of HIV-2 strain ROD (HIV-2 strain ROD) (P04577 20-858): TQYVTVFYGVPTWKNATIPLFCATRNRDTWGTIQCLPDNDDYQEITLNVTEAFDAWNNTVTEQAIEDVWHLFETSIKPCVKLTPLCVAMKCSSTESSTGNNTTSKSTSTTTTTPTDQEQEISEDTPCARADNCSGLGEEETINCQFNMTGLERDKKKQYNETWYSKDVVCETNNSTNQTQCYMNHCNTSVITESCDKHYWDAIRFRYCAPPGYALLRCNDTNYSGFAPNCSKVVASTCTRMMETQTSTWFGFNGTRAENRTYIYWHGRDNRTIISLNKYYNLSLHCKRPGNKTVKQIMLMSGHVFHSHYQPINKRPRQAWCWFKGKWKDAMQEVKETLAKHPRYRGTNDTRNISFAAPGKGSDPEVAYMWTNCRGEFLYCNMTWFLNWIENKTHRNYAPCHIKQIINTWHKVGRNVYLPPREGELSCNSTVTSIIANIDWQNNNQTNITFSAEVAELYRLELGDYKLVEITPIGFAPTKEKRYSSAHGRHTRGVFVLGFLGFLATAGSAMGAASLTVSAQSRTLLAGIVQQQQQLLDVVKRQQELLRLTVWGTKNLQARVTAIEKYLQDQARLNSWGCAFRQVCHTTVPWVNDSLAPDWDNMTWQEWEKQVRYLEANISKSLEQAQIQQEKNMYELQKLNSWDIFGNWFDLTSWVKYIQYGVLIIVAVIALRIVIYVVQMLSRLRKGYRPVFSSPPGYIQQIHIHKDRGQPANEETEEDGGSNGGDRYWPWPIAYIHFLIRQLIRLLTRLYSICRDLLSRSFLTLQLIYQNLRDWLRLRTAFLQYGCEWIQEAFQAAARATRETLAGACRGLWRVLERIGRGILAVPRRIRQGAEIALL
Assay [7] has as its target envelope of HIV-1 strain BaL (HIV-1 strain BaL).
In assay [8] the target is envelope of HIV-1 strain YU2 (HIV-1 strain YU2) (UniProt P35961).
Chain of envelope of HIV-1 strain YU2 (HIV-1 strain YU2) (P35961 32-843): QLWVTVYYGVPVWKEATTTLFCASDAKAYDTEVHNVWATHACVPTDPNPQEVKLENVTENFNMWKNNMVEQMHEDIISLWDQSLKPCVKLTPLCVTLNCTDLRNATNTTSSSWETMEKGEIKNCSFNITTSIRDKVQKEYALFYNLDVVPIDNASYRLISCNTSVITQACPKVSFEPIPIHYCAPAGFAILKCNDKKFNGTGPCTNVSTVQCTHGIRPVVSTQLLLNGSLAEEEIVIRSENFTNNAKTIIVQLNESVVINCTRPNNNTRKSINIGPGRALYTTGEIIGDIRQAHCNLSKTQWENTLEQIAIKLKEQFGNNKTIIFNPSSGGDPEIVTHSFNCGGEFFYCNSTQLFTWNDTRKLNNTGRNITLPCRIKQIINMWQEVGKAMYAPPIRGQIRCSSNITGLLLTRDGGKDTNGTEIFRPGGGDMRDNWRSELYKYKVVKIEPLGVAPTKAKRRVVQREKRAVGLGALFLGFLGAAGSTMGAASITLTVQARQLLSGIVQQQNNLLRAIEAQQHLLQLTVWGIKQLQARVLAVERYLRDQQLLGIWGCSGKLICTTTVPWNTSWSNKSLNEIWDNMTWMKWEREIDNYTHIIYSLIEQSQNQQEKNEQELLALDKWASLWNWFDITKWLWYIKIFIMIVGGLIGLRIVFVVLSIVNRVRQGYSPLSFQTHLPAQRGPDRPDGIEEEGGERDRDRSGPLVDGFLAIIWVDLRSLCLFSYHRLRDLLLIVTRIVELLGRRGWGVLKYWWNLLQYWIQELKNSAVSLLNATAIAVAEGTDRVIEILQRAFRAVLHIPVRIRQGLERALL
Assay [9] deals with envelope of standard panel pseudotyped virus SVPB16 (HIV-1 subtype B).
The target of assay [10] is envelope of standard panel pseudotyped virus SVPB13 (HIV-1 subtype B).
Assay [11] deals with envelope of HIV-1 strain 89.6 (HIV-1 strain 89.6) (UniProt Q73372).
Assay [12] concerns the target envelope of HIV-1 strain JRFLGPER
The target in assay [13] is envelope of standard panel pseudotyped virus SVPB12 (HIV-1 subtype B).
Assay [14] deals with envelope of HIV-1 strain JR-FL (JRFLwt), on virus (HIV-1 strain JR-FL).
Assay [15] has as its target envelope of standard panel pseudotyped virus SVPB15 (HIV-1 subtype B).
Assay [16] concerns the target envelope of standard panel pseudotyped virus SVPB6 (HIV-1 subtype B).
Assay [17] addresses envelope of standard panel pseudotyped virus SVPB17 (HIV-1 subtype B).
Assay [18] concerns the target envelope of HIV-2 strain EHO (HIV-2 strain EHO).
Assay [19] concerns the target envelope of standard panel pseudotyped virus SVPB14 (HIV-1 subtype B).
The target in assay [20] is envelope of standard panel pseudotyped virus SVPB18 (HIV-1 subtype B).

As for KD-247 (antibody), the IC50, neutralizing activity (MTT assay) in assay [1] is 0.21 µg/mL; in assay [3] it was over 50 µg/mL; in assay [6] it was over 50 µg/mL; in assay [7] it was 3.8 µg/mL; in [8], over 50 µg/mL; in [11], 4.2 µg/mL. In addition, the IC50, neutralizing activity (MTT assay) in [12] is over 50 µg/mL; in assay [14], 12 µg/mL; in assay [18], over 50 µg/mL. The IC50 in TZM-bl cells was over 50 µg/mL in [2]; over 50 µg/mL in assay [4]; 1.8 µg/mL in assay [5]; over 50 µg/mL in assay [9]; over 50 µg/mL in assay [10]; over 50 µg/mL in [13]. The IC50 in TZM-bl cells was over 50 µg/mL in [15]; over 50 µg/mL in assay [16]; 17 µg/mL in [17]; over 50 µg/mL in assay [19]; 28 µg/mL in [20].
